Target: Aβ42 monomer (UniProt P05067 672-713)
Assay: NMR titration

Chain of Aβ42 monomer (P05067 672-713): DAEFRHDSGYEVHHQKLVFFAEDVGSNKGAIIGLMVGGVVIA

binding result: binds
Binder: GFLLHQK [P_(active)]
